The numbers were not newly measured in paper PMC4519920, which cites them from elsewhere.

pKd: −log10 of the molar value.

The target of the series is hsp70 (UniProt P0DMV8).
UniProt P0DMV8, sequence (P0DMV8 2-641): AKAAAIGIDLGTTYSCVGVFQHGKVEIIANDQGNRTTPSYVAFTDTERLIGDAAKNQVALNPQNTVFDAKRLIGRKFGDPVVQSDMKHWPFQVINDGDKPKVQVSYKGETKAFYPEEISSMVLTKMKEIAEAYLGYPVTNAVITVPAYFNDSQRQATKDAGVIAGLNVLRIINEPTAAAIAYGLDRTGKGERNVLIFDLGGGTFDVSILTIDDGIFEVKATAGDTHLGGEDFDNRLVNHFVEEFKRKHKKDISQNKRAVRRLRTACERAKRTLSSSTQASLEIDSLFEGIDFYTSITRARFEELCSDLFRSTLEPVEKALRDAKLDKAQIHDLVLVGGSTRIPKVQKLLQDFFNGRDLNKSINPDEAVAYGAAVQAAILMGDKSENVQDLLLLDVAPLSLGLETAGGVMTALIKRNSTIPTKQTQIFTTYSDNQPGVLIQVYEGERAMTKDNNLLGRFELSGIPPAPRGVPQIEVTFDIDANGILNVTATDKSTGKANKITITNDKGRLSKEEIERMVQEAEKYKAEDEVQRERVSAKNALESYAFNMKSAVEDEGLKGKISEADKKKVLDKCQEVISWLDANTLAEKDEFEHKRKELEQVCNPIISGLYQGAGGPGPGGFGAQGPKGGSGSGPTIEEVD

Take “Nucleoprotein NTAIL Box2 (from UniProt P35972)”: the pKd was 8.00.
